Assay results as given in publication PMC2597415.
Substitutions are numbered along the chain they refer to.

B1: RPE (D-ribulose 5-phosphate 3-epimerase) (Streptococcus pyogenes serotype M1) (protein)
chain: MSTLKIAPSILAADYANFASELARIEETDAEYVHIDIMDGQFVPNISFGADVVASMRKHSKLVFDCHLMVVDPERYVEAFAQAGADIMTIHTESTRHIHGALQKIKAAGMKAGVVINPGTPATALEPLLDLVDQVLIMTVNPGFGGQAFIPECLEKVATVAKWRDEKGLSFDIEVDGGVDNKTIRACYEAGANVFVAGSYLFKASDLVSQVQTLRTALNV
B2: ALSE (D-allulose 6-phosphate 3-epimerase) (Escherichia coli K-12) (protein)
chain: MKISPSLMCMDLLKFKEQIEFIDSHADYFHIDIMDGHFVPNLTLSPFFVSQVKKLATKPLDCHLMVTRPQDYIAQLARAGADFITLHPETINGQAFRLIDEIRRHDMKVGLILNPETPVEAMKYYIHKADKITVMTVDPGFAGQPFIPEMLDKLAELKAWREREGLEYEIEVDGSCNQATYEKLMAAGADVFIVGTSGLFNHAENIDEAWRIMTAQILAAKSEVQPHAKTA
B3: ALSE (D-allulose 6-phosphate 3-epimerase) (Escherichia coli K-12; DEL196-196) (protein)
chain: MKISPSLMCMDLLKFKEQIEFIDSHADYFHIDIMDGHFVPNLTLSPFFVSQVKKLATKPLDCHLMVTRPQDYIAQLARAGADFITLHPETINGQAFRLIDEIRRHDMKVGLILNPETPVEAMKYYIHKADKITVMTVDPGFAGQPFIPEMLDKLAELKAWREREGLEYEIEVDGSCNQATYEKLMAAGADVFIVGSGLFNHAENIDEAWRIMTAQILAAKSEVQPHAKTA
B4: ALSE (D-allulose 6-phosphate 3-epimerase) (Escherichia coli K-12; DEL198-198) (protein)
chain: B3 chain with S196T, G197S
B5: ALSE (D-allulose 6-phosphate 3-epimerase) (Escherichia coli K-12; DEL197-197) (protein)
chain: B3 chain with S196T

Columns and labels:
[1] = substrate: O=C(CO)[C@H](O)[C@H](O)COP(=O)(O)O; assay: coupled-enzyme spectrophotometric assay of RPE activity; assay type: biochemical, Streptococcus pyogenes; conditions: Co2+ enzyme
[2] = substrate: O=C(CO)[C@H](O)[C@H](O)COP(=O)(O)O; assay: as above; assay type: biochemical, Escherichia coli; conditions: Co2+ enzyme

Protein | Km [1] | kcat [1] | kcat/Km [1] | Km [2] | kcat [2] | kcat/Km [2]
B1 | 1.2 ± 0.1 mM | 3800 ± 160 s⁻¹ | 3.2e+06 M⁻¹ s⁻¹ | – | – | –
B2 | – | – | – | 3.0 ± 0.3 mM | 2 ± 0.8 s⁻¹ | 670 M⁻¹ s⁻¹
B3 | – | – | – | 3.9 ± 0.5 mM | 130 ± 7 s⁻¹ | 33000 M⁻¹ s⁻¹
B4 | – | – | – | 5.1 ± 0.5 mM | 440 ± 20 s⁻¹ | 86000 M⁻¹ s⁻¹
B5 | – | – | – | 2.8 ± 0.6 mM | 240 ± 14 s⁻¹ | 85000 M⁻¹ s⁻¹
